Laboratory results reported in the RNAGym collection of RNA variant scans (doi:10.1073/pnas.2313332121).

B1: TPR t1 (parent)
chain: GACCAAUCUGCCCUCAGAGCUCGAGAACAUCUUCGGAUGCAGAGGAGGCAGGCUUCGGUGGCGCGAUAGCGCCAACGUCCUCAACCUCCAAUGCAUCCCACCACAUGAUGAUGCCUGAAGAGCCUUGGUUUUUUG

Variants of: B1
Experiment: polymerase ribozyme fitness, log enrichment relative to wild type (log ratio); higher = more active; in vitro selection for triplet polymerase activity
Summary of the method: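 After PCR construction and transcription, each subunit's mutant library from a heterodimeric triplet polymerase ribozyme was annealed with a biotinylated primer, the partner subunit and triplets. Incubation was frozen, at −7 °C, and extended constructs were gel-excised, bound to streptavidin beads and amplified by RT-PCR, in one selection round done in triplicate. Fitness is the logarithm of a genotype's enrichment divided by that of the wild type, from inverse-variance-weighted replicate averages of Illumina-sequenced inputs and outputs. The base of the logarithm is 2, and genotypes needed ≥10 input reads and ≥1 read per output.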

Variant	polymerase ribozyme fitness (log ratio)
G63C A84G	-1.73
C62U U130G	-1.41
C62U U129A	-1.09
G69C G113A C114A U125A U133A	-4.08
G69U C86G C94U C124G G135A	0.0412
C64U U109A	-4.01
G69U G93U U109C	-4.75
G63U C73A A84U C86U A100G A111C	-6.77
G69C A83U C99A C102A	-6.91
G69C	-1.27
G69U	0.48
G69A	-2.44
C64G A111G	-5.39
G69A G77A C86U U112A	-2.89
G63A A83C G127A G128C	-3.2
G63A U96G U112A A118G	-1.58
G69U C70G C88U C115A	-0.11
A66U U78C U87A A111U	-4.73
A68U U130C	-5.02
G69A C85U	-3.69
G69U C79G	-1.63

Variant	polymerase ribozyme fitness (log ratio)
G63C A121G U130A	0.94
C62U U106G A121U G122U	-1.15
G63A G113C U133A	-4.26
G69A G110C	-6.02
G69A G110A	-3.77
C64U A74G U78A	-2.93
G63U G77U	-3.54
C64G U81G C101A G113A	-6.96
G69A C89U C123G	-2.85
G69C A121U	0.369
G63A A119U	-1.29
G63U U81G C97U U106A G120A U133C	-3.57
G69A G93A G113C	-6.22
G63A A105G C124G	-2.8
A68G U81A C99U A111U C124U	-5.02
G63A C115U A119C	-5.84
G69U A83U	-0.34
G69U C94U	1.7
C64U C101G	-1.69
G69A U129G	-3.2
A68G C97A	-7.14

Variant	polymerase ribozyme fitness (log ratio)
C64U U96C U132A	-0.407
U67C C82G A119G	-5.87
G69A A75G U96C	-3.29
C64U U87A U109C	-5.61
G63C C124A	0.234
G63A U78C	-0.735
G63A U78G	-2.6
G63U G135U	-2.37
G65A G120C U129A U132C	-6.78
G69U C86G U96G C114A	-2.17
G69A G77C C94U	-4.05
C64U A95G G117C	-4.22
G69A C85A U106A U125A	-5.49
G63A C123U G128C	-1.87
G63U C85A G128A	-4.29
G69C U96G U106C	-3.19
A68G U129G	-4.32
A68G U129A	-4.01
G69A C70U	-3.12
G63A A74U	-3.72
G63C C86A U96G C102A	-5.23

Variant	polymerase ribozyme fitness (log ratio)
G69C U81C C88U U106C	-2.4
G69A C88A C123G C124A G135U	-3.37
G63C G117A	-1.45
G63U U78A	-0.683
A68G U78C	-3.07
G69U C102G	-2.76
G63C C123A G127A G135C	-0.151
G63U G93A	-1.31
G63A C64U	-5.38
C64U C82G C89A U109A	-5.15
G69A C124U	-1.25
G63C G93A	-1.12
G63A C123G	0.797
C64U C97U	-1.3
G69C C80U	-2.38
G63U A111U	-4.61
C64U G77A G93C C98U G120A C124G	-1.69
G69A G120A	-1.48
G69A G120C	-0.596
G69A U81G A84C G93U C97G U112A	-6.86
G63C C97A G120C U126A	-6.28
